We go through eight molecules from US7888090B2, “Mutants of O6-alkylguanine-DNA alkyltransferase” (Ecole Polytechnique Federale de Lausanne, priority 2004, dated 2011).

Substitutions are numbered along the chain they refer to.

The labels stand for the following.
B1: Asn150Val, lle151Ser, Asn152Arg, Gly153Asp, Ala154Asp: AGT mutant having all mutations of AGTM and additionally those listed (protein, UniProt P16455 1-207, looked up, variant C62A Q115S Q116H K125A A127T R128A G131K G132T M134L R135S C150V S152R G153D A154D N157G S159E del183-207)
Methylated-DNA--protein-cystei …: MDKDCEMKRTTLDSPLGKLELSGCEQGLHEIKLLGKGTSAADAVEVPAPAAVLGGPEPLMQATAWLNAYFHQPEAIEEFPVPALHHPVFQQESFTRQVLWKLLKVVKFGEVISYSHLAALAGNPAATAAVKTALSGNPVPILIPCHRVVVSRDDVGGYEGGLAVKEWLLAHEGHRLGKPGLG
B2: Asn150Val, lle151Asn, Asn152Asp, Gly153Leu, Ala154Asp: AGT mutant having all mutations of AGTM and additionally those listed (protein, UniProt P16455 1-207, looked up, variant C62A Q115S Q116H K125A A127T R128A G131K G132T M134L R135S C150V S151N S152D G153L A154D N157G S159E del183-207)
Methylated-DNA--protein-cystei …: B1 Methylated-DNA--protein-cystei … with S151N, R152D, D153L
B3: Asn150Glu, lle151Gly, Asn152Trp, Gly153Asn, Ala154Glu: AGT mutant having all mutations of AGTM and additionally those listed (protein, UniProt P16455 1-207, looked up, variant C62A Q115S Q116H K125A A127T R128A G131K G132T M134L R135S C150E S151G S152W G153N A154E N157G S159E del183-207)
Methylated-DNA--protein-cystei …: B1 Methylated-DNA--protein-cystei … with V150E, S151G, R152W, D153N, D154E
B4: Asn150Glu, lle151Gly, Asn152Arg, Gly153Glu, Ala154Arg: AGT mutant having all mutations of AGTM and additionally those listed (protein, UniProt P16455 1-207, looked up, variant C62A Q115S Q116H K125A A127T R128A G131K G132T M134L R135S C150E S151G S152R G153E A154R N157G S159E del183-207)
Methylated-DNA--protein-cystei …: B1 Methylated-DNA--protein-cystei … with V150E, S151G, D153E, D154R
B5: Lys32lle, Leu33Phe, Ala154Thr: AGT mutant having all mutations of AGTM and additionally those listed (protein, UniProt P16455 1-207, looked up, variant C62A Q115S Q116H K125A A127T R128A G131K G132T M134L R135S C150N S151I S152N N157G S159E del183-207 K32I L33F A154T)
Methylated-DNA--protein-cystei …: B1 Methylated-DNA--protein-cystei … with K32I, L33F, V150N, S151I, R152N, D153G, D154T
B6: Gln115Ser, Gln116His, Cys150Asn, Ser151Ile, Ser152Asn, Asn157Gly, Ser159Glu: hAGT mutant with the listed mutations, selected by phage display (protein, UniProt P16455 1-207, looked up, variant Q115S Q116H C150N S151I S152N N157G S159E)
Methylated-DNA--protein-cystei …: MDKDCEMKRTTLDSPLGKLELSGCEQGLHEIKLLGKGTSAADAVEVPAPAAVLGGPEPLMQCTAWLNAYFHQPEAIEEFPVPALHHPVFQQESFTRQVLWKLLKVVKFGEVISYSHLAALAGNPKAARAVGGAMRGNPVPILIPCHRVVNINGAVGGYEGGLAVKEWLLAHEGHRLGKPGLGGSSGLAGAWLKGAGATSGSPPAGRN
B7: Cys62Ala, Lys125Ala, Ala127Thr, Arg128Ala, Asn157Gly, Ser159Glu: hAGT mutant with the listed mutations (protein, UniProt P16455 1-207, looked up, variant C62A K125A A127T R128A N157G S159E)
Methylated-DNA--protein-cystei …: B6 Methylated-DNA--protein-cystei … with C62A, S115Q, H116Q, K125A, A127T, R128A, N150C, I151S, N152S
B8: truncated PGEG-hAGT: PGEG-hAGT (Asn157Gly, Ser159Glu) truncated after codon 182 (protein, UniProt P16455 1-207, looked up, variant N157G S159E del183-207)
Methylated-DNA--protein-cystei …: MDKDCEMKRTTLDSPLGKLELSGCEQGLHEIKLLGKGTSAADAVEVPAPAAVLGGPEPLMQCTAWLNAYFHQPEAIEEFPVPALHHPVFQQESFTRQVLWKLLKVVKFGEVISYQQLAALAGNPKAARAVGGAMRGNPVPILIPCHRVVCSSGAVGGYEGGLAVKEWLLAHEGHRLGKPGLG

A short description of the first series: BG-Cy3 activity assay (reaction rate of AGT mutants). Format: biochemical. As to conditions: divided by value for wild type hAGT; purified GST fusion proteins (p.). How it is done: Reactivity against DNA-based substrates measured with a BG-Cy3 assay: BG-Cy3 is prepared by reacting the previously described O^6-(4-aminomethyl-benzyl)guanine (Keppler et al., NatureBiotechnol. 21:86-89, 2003) with the commercially available N-hydroxysuccinimide ester of Cy3, (Cy3-NHS, Amersham). The coupling reaction is performed at ambient temperature in N,N-dimethylformamide in the presence of 1 eq. of triethylamine. The BG-Cy3 conjugate is purified by reversed-phase HPLC on a C18-column by using linear gradients from 0.1% trifluoroacetic acid to acetonitrile. After solvent evaporation BG-Cy3 is dissolved in dimethyl sulfoxide and stored at −20° C. For measuring the reactivity with DNA-based substrates, a reaction mixture containing different concentrations (0 to 5 µM) of oligonucleotide SEQ ID NO:2 (modified in position 14), GST-AGT fusion protein at 0.2 µM and BG-Cy3 at […] in reaction buffer (50 mM HEPES, pH 7.2, 1 mM DTT, 200 mg/ml BSA) is incubated in microtiterplates. Fluorescence of the Cy3 derivative (excitation 519 nm, emission at 572 nm) is measured on a Spectramax Gemini plate reader (Molecular Devices).
The amplified products are cloned in fusion to the g3 gene of filamentous phage in the vector pAK100 via SfiI restriction sites. The resulting gene libraries are used for phage display as described under Example 4. The mutants of the libraries are selected with 5 to 50 nM of BG-Bt for 10 min. Selected mutants are subcloned into pGEX using the primers SEQ ID NO:3 and SEQ ID NO:13. The reaction rate of mutant AGTs is determined as described in Example 6, Reactivity against DNA-based substrates (BG-Cy3 assay).
For the activity assay purified GST fusion proteins were used for mutants marked with “p.” (prepared as described under Example 1); periplasmic extracts were used for mutants marked with “x.” (prepared as described under Example 2).
In turn, B1 yielded a Relative reaction rate of 21.26.

Consider B2, for which the Relative reaction rate came out at 15.67.

Take B3: the Relative reaction rate amounted to 11.97.

B4 gave a Relative reaction rate of 11.20.

The molecule B5 registered a Relative reaction rate of 33.89.

The next series can be described thus: Activity assay with biotinylated O^6-benzylguanine (BG-Bt), Western blotting. Format: biochemical. The following applies: statement in words. How it is done: Activity towards O^6-benzylguanine substrates is measured as described by Juillerat et al., Chem Biol 10:313-317, 2003.
Activity assay: Purified mutated GST-AGT is incubated in vitro with a biotinylated O^6-benzylguanine (BG-Bt, substance 3a of Juillerat et al., Chem Biol 10:313-317, 2003). In a total reaction volume of 80 […]I, 0.2 µM GST-AGT are incubated with 1 µM substrate in 50 mM HEPES pH 7.2 and 1 mM DTT at room temperature. At several points of time an aliquot is quenched with 1 mM O^6-benzylguanine (Sigma) in SDS-Laemmli buffer and subjected to Western blotting analysis (neutravidin-peroxidase conjugate (PIERCE), Renaissance reagent plus (NEN)). The intensity of the corresponding bands is quantified by a Kodak Image Station 440.
As for B6, the “activity towards O^6-benzylguanine substrates” value is “retains activity”.

B7: the “activity towards O^6-benzylguanine substrates” value is listed as “retains activity”.

With B8, the “activity towards O^6-benzylguanine substrates” value is “retains activity”.

A further series in a line: Expression yield of soluble GST-AGT fusion protein. The following applies: comparator not stated. Also noted: species or system E. coli. How it is done: Expression yield is measured in E. coli or in any other of the standard production cells for genetically modified proteins, e.g. yeast, or preferably insect cells, CHO cells or HeLa cells. For quantifying expression yield, AGT fusion proteins may be chosen such that the fusion partner allows easy purification and quantification. For example, expression yield in E. coli is determined by measuring and comparing the yield of soluble and insoluble GST-wild type AGT fusion protein and GST-mutant AGT fusion protein from parallel E. coli expression cultures. Samples of the soluble fractions and insoluble fractions (i.e. the inclusion bodies) after cell lysis are subjected to SDS-PAGE, and the band staining intensities of the corresponding AGT fusion proteins are compared. Soluble protein is quantified after purification of the fusion protein from cell extracts by affinity chromatography (e.g. for GST-AGT fusion proteins by glutathione sepharose) by subjecting the purified fractions to a protein concentration assay (Bradford, Anal Biochem 72:248-54, 1976). The expression yield of similar proteins in the soluble fraction (difference in point mutations) can be used as a measure for protein stability in the unpurified as well as the purified state (Ohage et al., J Mol Biol 291:1119-1128, 1999; Wirtz et al., Protein Sci 8: 2245-50, 1999). Therefore, this is taken as a measure of folding stability and aggregation tendency.
Protein expression from this vector is carried out in E. coli strain BL21. An exponentially growing culture is induced with 0.5 mM IPTG, and the expression is carried out for 3.5 h at 24° C.
Purification: The harvested cells are resuspended in a buffer containing 50 mM phosphate, 0.5 M NaCl, 1 mM DTT, supplemented with 1 mM PMSF and 2 μg/ml aprotinin, and disrupted by lysozyme and sonification. The cell debris are separated by centrifugation at 40000×g. The extract is applied to pre-equilibrated glutathione sepharose (Amersham) which is then washed with 20 bed volumes (50 mM phosphate, 0.5 M NaCl, 1 mM DTT). The mutated GST-AGT fusion protein is eluted with 10 mM reduced glutathione in 50 mM Tris·HCl pH 7.9. The purified protein is dialyzed against 50 mM HEPES pH 7.2; 1 mM DTT; 30% glycerol and then stored at −80° C.
Determination of protein yield: Purity and relative amounts of the GST-AGT fusion proteins are compared by running samples on SDS-PAGE. UV spectra of the pure fractions are recorded using a Perkin Elmer Lambda 10. For protein samples containing no significant amount of DNA, the extinction at 280 nm as a measure of protein content is compared to that of wild type hAGT or PGEG-hAGT that were purified under the same conditions.
B6: the “expression yield in E. coli” value was “substantially increased expression yield”.
